Assay [1] deals with MLDLQPETT-sensitized T2 cells. Nature of the assay: In vitro induction of primary CTL response and cytotoxicity assay on peptide-sensitized T2 cells. In kind it is cell-based, human. The conditions noted are these: PBL of HLA-A2.1 donor stimulated with 80 μg/ml peptide; cytotoxicity assay on day 49; background: T2 with irrelevant peptide ATELQTTIH
As to the method:
The expression of HLA-A2.1 on 174CEM.T2 cells (T2) is increased by incubating T2 cells in medium containing relevant peptide. T2 cells will present the relevant peptide bound to HLA-A2.1 in high amount and therefore are good antigen presenting cells (APC). In the response inducing method described below the T2 cell line is used as APC and post-Ficoll mononuclear cells are used as responder cells.
T2 cells in a concentration of 2×10^6 cells per ml were incubated for 13 h at 37° C. in a T 25 flask (Becton Dickinson, Falcon, Plymouth Engeland cat.nr. 3013) in serum-free IMDM (=Iscoves Modified Dulbecco's Medium: Biochrom KG, Seromed Berlin, Germany, cat.nr. F0465) with glutamine (2 mM, ICN Biochemicals Inc., Costa Meisa, USA, cat.nr. 15-801-55), antibiotics (100 IU/ml penicilline (Brocades Pharma, Leiderdorp, The Netherlands, 100 μg/ml kanamycine (Sigma, St. Louis, USA, K-0245)) and the selected peptide […] (=JWK3; SEQ ID NO:15) in a concentration of 80 μg/ml.
These incubated T2 cells were spun down and subsequently treated in a density of 20×10^6 cells/ml with Mitomycine C (50 μg/ml) in serum-free RPMI (Gibco Paislan, Scotland, cat.nr. 041-02409) medium for 1 h at 37° C. Hereafter the T2 cells were washed three times in RPMI. […]

In the next assay the target is T1, HLA-A2.1 (Homo sapiens, UniProt P04439, D140Y/D185E/D98H/E176V/E277Q/G131W/G231S/I119V/I121R/I166T/I218V/L300P/L318F/N151K/N90K/P208A/P217A/Q86G/Q94H/R138H/R169H/T345S).
T1 construct: endogenous in cells; host or cells: 174CEM.T2
In kind it is cell-based. The following applies: HPV16 peptides, 200 μg/ml peptide, 16 hours, 174CEM.T2 cells. As to the method: Of all peptides a dilution of 1 mg/ml in 0.9% NaCl was made.
174CEM.T2 cells were cultured in Iscovel's modified Dulbecco's medium (Biochrom KG Seromed Berlin, Germany: F0465) supplemented with 100 IU/ml penicillin (Biocades Pharma, Leiderdorp, The Netherlands), 100 μg/ml kanamycin (Sigma St. Louis, USA:K-0254), 2 mM glutamine (ICN Biomedicals Inc. Costa Mesa, Calif., USA:15-801-55) and 10% fetal calf serum (FCS, Hyclone Laboratories Inc. Logan, Utah, USA:A-1115-L). Cells were cultured at a density of 2.5×10^5/ml during 3 days at 37° C., 5% CO2 in humified air.
174CEM.T2 cells were washed twice in culture medium without FCS and put in serum-free culture medium to a density of 2×10^6 cells/ml. Of this suspension 40 μl was put into a V bottomed 96 well plate (Greiner GmbH, Frickenhausen, Germany: 651101) together with 10 μl of the individual peptide dilutions (of 1 mg/ml). The end concentration is 200 μg/ml peptide with 8×10^4 174CEM.T2 cells. This solution was gently agitated for 3 minutes after which an incubation time of 16 hours at 37° C., 5% CO2 in humified air took place. Then cells were washed once with 100 μl 0.9% NaCl, 0.5% bovine serum albumin (Sigma St. Louis, USA: A-7409), 0.02% NaN3 (Merck Darmstadt, Germany:822335). After a centrifuge round of 1200 rpm the pellet was resuspended in 50 μl of saturating amounts of HLA-A2.1 specific mouse monoclonal antibody BB7.2 for 30 minutes at 4° C. Then cells were washed twice and incubated for 30 minutes with F(ab)2 fragments of goat anti-mouse IgG that had been conjugated with […] (Tago Inc Burlingame, Calif., USA: 4350) in a dilution of 1:40 and a total volume of 25 μl.
After the last incubation, cells were washed twice and fluorescence was measured at 488 nanometer on a FACScan flow-cytometer (Becton Dickinson, Franklin Lakes, N.J., USA).
The 174CEM.T2 cell line expresses “empty” and unstable HLA-A2.1 molecules that can be stabilized when a peptide is binding to the peptide presenting groove of these molecules. […] This leads to an increase in cell surface expression of the HLA-A2.1 molecule.
With background fluorescence level (without adding peptides) set on a Fluorescence Index level of 0, binding of a peptide was regarded positive when the level of fluorescence was ≧0.5.

“MLDLQPETT [HPV16 peptide 13, residues 12-20 of HPV16 protein E7]”: the “specificity of killing by peptide-induced bulk CTL culture” value in assay [1] is reported as “seemed to be specific for killing MLDLQPETT (SEQ ID NO:15)-sensitized T2 cells”. The “MF (mean HLA-A2.1 fluorescence)” value in the assay with HLA-A2.1 amounted to 217.6. Moreover, in the assay with HLA-A2.1 (background set on 0, binding positive when ≧0.5), the “FI (Fluorescence Index)” value amounted to 2.3.

The record behind these values is patent US7364741B1, “Peptides of human Papilloma virus for use in human T cell response inducing compositions” (priority 1992, dated 2008).
